Experiment [1] has as its target human S100A6 (human). Kind of experiment: ITC.
Experiment [2] deals with human S100A6 (human). Kind of experiment: ITC. This is another data set of the same source.

Where two headings read alike, the source gives them in different places.

We go through one substance from article PMC5995566.

Chain of peptide from Siah-interacting protein (SIP) (Q9HB71 188-218): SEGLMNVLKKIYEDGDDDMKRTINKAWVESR

The substance “peptide from Siah-interacting protein (SIP) (from UniProt Q9HB71 188-218)” registered a Kd with human S100A6 (human) [1] of 20 µM. In the experiment with human S100A6 (human) [2], this substance gave a Kd of 26 µM, a dH of 2.9 kcal/mol and a fx comp of 1.5.
